Measurements reported in the supplement of paper PMC9732359.
± gives the uncertainty stated by the source.

Assay: protein stability index of a GFP-peptide fusion (yeast GPS) (PSI 1-4); higher = more stable; sorted into four equal gates, so the index is relative within each strain
In short: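 Tiled 17-residue peptides from yeast proteins were fused downstream of GFP on a plasmid that also expresses Cherry, and the pooled library was carried in yeast. Mid-log cultures grown in leucine-free medium were sorted into four equal gates by GFP/Cherry fluorescence ratio. Plasmids from each gate were PCR-amplified and Illumina-sequenced, and reads were assigned to strains by barcodes. Each peptide's protein stability index is the sum, over gates, of the gate's read frequency multiplied by its gate number.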

| Sequence | protein stability index (doa10∆) | protein stability index (pdr5∆) | protein stability index (san1∆) | protein stability index (ubr1∆) |
| --- | --- | --- | --- | --- |
| VGDEFKGYVFKISGGND [RPS6A] | 3.08 ± 0.28 | 3.49 ± 0.13 | 3.06 ± 0.15 | 3.58 ± 0.13 |
| TMETKTLPEKKQFDSIF [SIR4] | 2.44 ± 0.047 | 2.69 ± 0.057 | 2.84 ± 0.047 | 2.65 ± 0.043 |
| QQIQEQVLKCKESWDPN [YGR119C/NUP57] | 3.3 ± 0.17 |  | 3.33 ± 0.25 | 3.52 ± 0.22 |
| RLKYALNGREVKAILMQ [RPS4A] | 1.74 ± 0.073 | 1.39 ± 0.062 | 1.62 ± 0.18 | 1.24 ± 0.05 |
| GSLSGNSSSMEEVMRIA [ESC2] | 2.9 ± 0.074 | 2.88 ± 0.11 | 2.45 ± 0.12 | 2.73 ± 0.083 |
| PILAPSVKDYRPAEETE [RPS3] | 3 ± 0.056 | 3.13 ± 0.051 | 3.174 ± 0.03 | 2.92 ± 0.04 |
| TYKYFEVILVDPQHKAI [RPL15A] | 2.32 ± 0.083 | 2.09 ± 0.074 | 2.5 ± 0.15 | 2.63 ± 0.12 |
| VSTLIAGFDPRDDEPKL [PRE6] |  |  | 3.12 ± 0.077 |  |
| CRDSDDHKRFIVFHNEF [DIS3] | 3.02 ± 0.1 | 3.26 ± 0.084 | 2.33 ± 0.2 | 3.23 ± 0.065 |
| DGAYALSASWDKTLRLW [ASC1] | 3.28 ± 0.064 | 3.28 ± 0.057 | 3.18 ± 0.093 | 3.26 ± 0.036 |
| YTKPYPNFEASFVHGVV [SMC2] | 2.53 ± 0.15 | 2.32 ± 0.13 | 2.47 ± 0.26 | 2.33 ± 0.14 |
| AASLGDMVMATVKKGKP [RPL23A] | 2.6 ± 0.1 | 1.96 ± 0.087 | 3.5 ± 0.099 | 2.91 ± 0.078 |
| FIRSTNSWFDVTWRTFT [FAS1] | 1.37 ± 0.12 | 1.14 ± 0.13 |  | 1.34 ± 0.15 |
| ETNAKPFSFSSATSTTE [YLR335W/NUP2] | 2.18 ± 0.056 | 2.4 ± 0.053 | 2.35 ± 0.053 | 2.26 ± 0.035 |
| SYELRNTTTYKSRPDRP [SNF5] | 3.14 ± 0.06 | 3.3 ± 0.071 | 3.1 ± 0.087 | 3.19 ± 0.067 |
| NSDDFFMDNSYDIDEID [ESC2] | 2.27 ± 0.058 | 2.64 ± 0.077 | 2.64 ± 0.075 | 2.31 ± 0.051 |
| PRGLNSARKLRVHRRNN [RPS23A] | 2.39 ± 0.088 | 3.06 ± 0.079 | 2.96 ± 0.096 | 2.8 ± 0.073 |
| TVLADEFIAHRLGLIPL [RPB3] | 2.4 ± 0.087 | 2.16 ± 0.12 | 2.96 ± 0.047 | 3.12 ± 0.071 |
| ILLYGPPGTGKTLCARA [RPT1] | 1.26 ± 0.1 | 1.23 ± 0.18 | 1.36 ± 0.19 | 1.28 ± 0.12 |
| PSKGQSLSKISQAFDIV [RPP1] | 3.25 ± 0.095 | 3.19 ± 0.085 | 2.96 ± 0.11 | 3.2 ± 0.085 |

| Sequence | protein stability index (doa10∆) | protein stability index (pdr5∆) | protein stability index (san1∆) | protein stability index (ubr1∆) |
| --- | --- | --- | --- | --- |
| SIMAVTFKDGVILGADS [PRE3] | 1.66 ± 0.1 | 2.61 ± 0.094 | 2.94 ± 0.086 | 2.59 ± 0.14 |
| TLSYDDISAAIVHSSDG [DLS1] | 2.65 ± 0.046 | 2.82 ± 0.053 | 2.72 ± 0.04 | 2.66 ± 0.046 |
| TFQRVCQYMVACVPLLP [RPN1] | 2.5 ± 0.06 | 2.42 ± 0.071 | 1.86 ± 0.14 | 2.53 ± 0.1 |
| DDSLNRLAQNDGLLKNV [RPS21A] | 2.77 ± 0.15 | 3.04 ± 0.12 | 3.16 ± 0.13 | 3.38 ± 0.18 |
| YLACKVEECPQYIRTLV [SSN8] | 1.25 ± 0.14 | 1.27 ± 0.14 | 1.68 ± 0.16 | 1.96 ± 0.17 |
| HIIQAKADAQREKALNE [RPL19A] | 3.29 ± 0.19 | 3.38 ± 0.094 | 3.33 ± 0.086 |  |
| TFENTNNTEKNDVTNKN [SIR4] | 2.78 ± 0.094 | 2.89 ± 0.068 | 2.88 ± 0.059 | 3.04 ± 0.039 |
| QDGGVTPYSNESGLVNA [RPO21] | 2.68 ± 0.055 | 2.69 ± 0.065 | 2.63 ± 0.058 | 2.6 ± 0.068 |
| TMVIQDEDWSVRIDKAL [ECM29] | 2.84 ± 0.19 | 3.21 ± 0.18 |  |  |
| IGGLIPQWKRHLEEYGY [YCS4] | 2.47 ± 0.068 | 2.83 ± 0.065 | 1.9 ± 0.14 | 2.9 ± 0.057 |
| VARFLHFNGIRRLDALV [ITC1] | 3.44 ± 0.16 | 3.45 ± 0.11 | 3.41 ± 0.058 | 3.35 ± 0.08 |
| GAIDEALEEAKLSDNIS [YDL116W/NUP84] | 3.17 ± 0.11 | 3.25 ± 0.091 | 3.41 ± 0.07 | 3.3 ± 0.045 |
| TNVSKQNDFLFSVGESL [ECM29] | 2.56 ± 0.055 | 2.92 ± 0.071 | 2.94 ± 0.1 | 2.46 ± 0.053 |
| EHFSHFGHIMEDFQVLR [YDL088C/ASM4] | 3.03 ± 0.063 | 2.92 ± 0.045 | 2.54 ± 0.059 | 2.44 ± 0.045 |
| KADDDSVTIISAGNDKM [ASC1] | 3.24 ± 0.091 | 2.92 ± 0.11 | 3.16 ± 0.04 | 3.04 ± 0.058 |
| SPVQDWNLLRSLYIFFT [YML103C/NUP188] | 2.38 ± 0.079 | 1.71 ± 0.053 | 2.25 ± 0.069 | 1.95 ± 0.042 |
| NISHLLEIASSIDCLLI [SWI1] | 2.21 ± 0.068 | 2.16 ± 0.046 | 2.29 ± 0.078 | 2.04 ± 0.035 |
| EATLESKLKEEEAALLI [ESC2] | 2.86 ± 0.067 | 3.05 ± 0.058 | 2.88 ± 0.038 | 2.91 ± 0.05 |
| TLKLQDTRITPSKVSKI [PRE6] | 2.53 ± 0.05 | 2.85 ± 0.052 | 2.34 ± 0.1 | 2.01 ± 0.031 |
